Substrate in the data set: C[C@@H](O)[C@H]1C(=O)N2C(C(=O)O)=C([C@H]3CCCO3)S[C@H]12
Put plainly: purified protein. Particulars: two Zn2+ ions active site. In kind it is biochemical, Stenotrophomonas maltophilia.

B1: L1 (Stenotrophomonas maltophilia) (protein)
chain: VDASWLQPMAPLQIADHTWQIGTEDLTALLVQTPDGAVLLDGGMPQMASHLLDNMKARGVTPRDLRLILLSHAHADHAGPVAELKRRTGAKVAANAESAVLLARGGSDDLHFGDGITYPPANADRIVMDGEVITVGGIVFTAHFMAGHTPGSTAWTWTDTRNGKPVRIAYADSLSAPGYQLQGNPRYPHLIEDYRRSFATVRALPCDVLLTPHPGASNWDYAAGARAGAKALTCKAYADAAEQKFDGQLAKETAGAR
As to B1, the Michaelis constant (Km) (in general, the concentration of substrate that gives half-maximal velocity) amounted to 36.3 µM; the catalytic constant (kcat) (usually the maximal rate divided by the concentration of active sites) came to 43.7 s⁻¹; the kcat/Km – broadly, the turnover number divided by the Michaelis constant – was 1.2e+06 M⁻¹ s⁻¹.

Values taken from PMC7614720.
